Source: patent US20240058465A1 (SUTRO BIOPHARMA, published 2024)

Key:
[1] = target: T1, human ROR1 (hROR1) expressed on cells (human, UniProt Q01973 30-937); test: flow cytometry, HCT116-hROR1 cells
T1 construct: Mino cells are the target positive cells of the killing assay; also called receptor tyrosine kinase like orphan receptor 1; HCT 116-hROR1

human ROR1-ECD = target: T2, human ROR1-ECD (human, UniProt Q01973 30-406); test: SPR (Biacore), antibody captured by anti-Fc, human ROR1-ECD analyte
T2 construct: Bought protein; also called hROR1; ROR1-extracellular domain
Procedure: Anti-Fc polyclonal antibodies were immobilized onto a CMS chip (GE Life Sciences) using amine coupling chemistry (from Amine Coupling Kit, GE Life Sciences). The immobilization steps were carried out at a flow rate of 25 μL/min in 1×HBS-EP+buffer (GE Life Sciences; 10× Stock diluted before use). The sensor surfaces were activated for 7 min with a mixture of NHS (0.05 M) and EDC (0.2 M). The Anti-Fc antibodies were injected over all 4 flow cells at a concentration of 25 ug/ml in 10 mM sodium acetate, pH 4.5, for 7 min. Ethanolamine (1 M, pH 8.5) was injected for 7 min to block any remaining activated groups.
Off-rate and kinetic binding experiments were performed at 25° C. using 1×HBS-EP+buffer. Test and control antibodies were injected over the anti-Fc surface at concentrations of 5-10 μg/mL for 12 seconds at a flow rate of 10 μL/min on flow cells 2, 3 and 4, followed by a buffer wash for 30 seconds at the same flow rate. […] After capturing ligand (antibody) on the anti-Fc surface, the analyte (hROR1, Fz or Kr domains, Acro Biosystems, Delaware) was bound for 180 seconds, followed by a 600 second dissociation phase at a flow rate of 50 μL/min. Between each ligand capture and analyte binding cycle, regeneration was carried out using 2 injections of 10 mM Glycine pH 2.0 for 30 seconds at 30 μL/min, followed by a 30 second buffer wash step.

[2] = target: T1, human ROR1 (hROR1) expressed on cells; test: cell-based or functional assay

B1: SRP1987-C05 parent (antibody, IgG1, V domains shown)
VH: EVQLVESGGGLVQPGGSLRLSCAASGFNISDYDIHWVRQAPGKGLEWVGGIDPDDGSTDYADSVKGRFTISADTSKNTAYLQMNSLRAEDTAVYYCARDYGVFDYWGQGTLVTVSS
VL: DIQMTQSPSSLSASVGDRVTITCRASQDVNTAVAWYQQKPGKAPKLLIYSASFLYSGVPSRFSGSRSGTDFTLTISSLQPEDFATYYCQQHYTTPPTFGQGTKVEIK
notes: IgG1 with trastuzumab LC; HIS- and FLAG-tagged; cell-free expressed
**Q.** B1 was tested. Which “Bmax (MFI)” value [1] did it give?
**A.** Its value is 9500 MFI.

**Q.** What about the Kd [1] of the same binder?
**A.** Its Kd is 0.04 nM.

**Q.** What about the Kd (human ROR1-ECD) of the same binder?
**A.** Its Kd is 0.694 nM.

**Q.** What about the koff (human ROR1-ECD) of the same binder?
**A.** The koff was 0.000681 s⁻¹.

**Q.** And the kon (human ROR1-ECD)?
**A.** The kon was 981000 M⁻¹ s⁻¹.

**Q.** And the “Mino Nb-PBD, drug-conjugated 2° antibody Cell Killing IC50” value [2]?
**A.** The value was 0.00077 nM.

**Q.** What about the “Mino Nb-PBD, drug-conjugated 2° antibody Cell Killing Span” value [2] of the same binder?
**A.** Its value is 68%.

B2: SRP2188-D06 (antibody, IgG1, V domains shown)
VH: EVQLVESGGGLVQPGGSLRLSCAASGFNIRDYDIHWVRQAPGKGLEWVGGIDPNDGATDYADSVKGRFTISADTSKNTAYLQMNSLRAEDTAVYYCARDYGVFDYWGQGTLVTVSS
VL: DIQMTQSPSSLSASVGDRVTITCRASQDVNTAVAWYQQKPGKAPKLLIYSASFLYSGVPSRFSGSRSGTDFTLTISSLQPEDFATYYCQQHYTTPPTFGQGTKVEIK
notes: as for B1
**Q.** Which results are given for B2?
**A.** Bmax (MFI) [1]: 9810 MFI; Kd [1]: 0.04 nM; Kd (human ROR1-ECD): 0.628 nM; koff (human ROR1-ECD): 0.000563 s⁻¹; kon (human ROR1-ECD): 897000 M⁻¹ s⁻¹; Mino Nb-PBD, drug-conjugated 2° antibody Cell Killing IC50 [2]: 0.0015 nM; Mino Nb-PBD, drug-conjugated 2° antibody Cell Killing Span [2]: 69%

B3: SRP2188-B03 (antibody, IgG1, V domains shown)
VH: EVQLVESGGGLVQPGGSLRLSCAASGFNISSYDIHWVRQAPGKGLEWVGAIDPGDGATDYADSVKGRFTISADTSKNTAYLQMNSLRAEDTAVYYCARDYGVYDYWGQGTLVTVSS
VL: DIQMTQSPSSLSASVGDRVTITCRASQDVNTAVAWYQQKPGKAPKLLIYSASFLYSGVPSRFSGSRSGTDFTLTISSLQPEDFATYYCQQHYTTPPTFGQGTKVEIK
notes: as for B1
**Q.** What does the source list for B3?
**A.** Bmax (MFI) [1]: 9560 MFI; Kd [1]: 0.04 nM; Kd (human ROR1-ECD): 0.346 nM; koff (human ROR1-ECD): 0.000334 s⁻¹; kon (human ROR1-ECD): 965000 M⁻¹ s⁻¹; Mino Nb-PBD, drug-conjugated 2° antibody Cell Killing IC50 [2]: 0.0017 nM; Mino Nb-PBD, drug-conjugated 2° antibody Cell Killing Span [2]: 71%

B4: SRP2188-D04 (antibody, IgG1, V domains shown)
VH: EVQLVESGGGLVQPGGSLRLSCAASGFNISDYDIHWVRQAPGKGLEWVGGIDPADGSTDYADSVKGRFTISADTSKNTAYLQMNSLRAEDTAVYYCARDYGVYDYWGQGTLVTVSS
VL: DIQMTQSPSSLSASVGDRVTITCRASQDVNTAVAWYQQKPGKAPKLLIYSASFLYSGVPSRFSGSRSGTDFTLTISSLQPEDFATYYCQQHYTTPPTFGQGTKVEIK
notes: IgG1 with trastuzumab LC; HIS- and FLAG-tagged; cell-free expressed in the screen; also called mAb 42
**Q.** How did the “Bmax (MFI)” value [1] turn out when B4 was run?
**A.** The value was 9690 MFI.

**Q.** What about the Kd [1] of the same binder?
**A.** The Kd was 0.04 nM.

**Q.** What about the Kd (human ROR1-ECD) of the same binder?
**A.** The Kd was 0.426 nM.

**Q.** And the koff (human ROR1-ECD)?
**A.** Its koff is 0.000423 s⁻¹.

**Q.** And the kon (human ROR1-ECD)?
**A.** Its kon is 994000 M⁻¹ s⁻¹.

**Q.** And the “Mino Nb-PBD, drug-conjugated 2° antibody Cell Killing IC50” value [2]?
**A.** Its value is 0.0014 nM.

**Q.** What about the “Mino Nb-PBD, drug-conjugated 2° antibody Cell Killing Span” value [2] of the same binder?
**A.** Its value is 69%.

B5: SRP2188-G01 (antibody, IgG1, V domains shown)
VH: EVQLVESGGGLVQPGGSLRLSCAASGFNISDYDIHWVRQAPGKGLEWVGGIDPNDGATDYADSVKGRFTISADTSKNTAYLQMNSLRAEDTAVYYCARDYGVFDYWGQGTLVTVSS
VL: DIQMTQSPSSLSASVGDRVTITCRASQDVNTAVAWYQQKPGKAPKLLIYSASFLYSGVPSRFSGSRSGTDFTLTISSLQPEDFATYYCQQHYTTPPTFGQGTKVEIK
notes: as for B1
**Q.** Which results are given for B5?
**A.** Bmax (MFI) [1]: 9750 MFI; Kd [1]: 0.05 nM; Mino Nb-PBD, drug-conjugated 2° antibody Cell Killing IC50 [2]: 0.0015 nM; Mino Nb-PBD, drug-conjugated 2° antibody Cell Killing Span [2]: 61%

B6: SRP2188-C09 (antibody, IgG1, V domains shown)
VH: EVQLVESGGGLVQPGGSLRLSCAASGFNINSYDIHWVRQAPGKGLEWVGWINPHDGDTYYADSVTGRFTISADTSKNTAYLQMNSLRAEDTAVYYCARDYGVFDYWGQGTLVTVSS
VL: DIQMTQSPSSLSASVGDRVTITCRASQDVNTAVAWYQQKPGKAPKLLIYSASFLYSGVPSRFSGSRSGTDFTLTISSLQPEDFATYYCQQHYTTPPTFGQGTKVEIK
notes: as for B1
**Q.** What does the source list for B6?
**A.** Bmax (MFI) [1]: 9080 MFI; Kd [1]: 0.03 nM; Kd (human ROR1-ECD): 0.504 nM; koff (human ROR1-ECD): 0.00042 s⁻¹; kon (human ROR1-ECD): 833000 M⁻¹ s⁻¹; Mino Nb-PBD, drug-conjugated 2° antibody Cell Killing IC50 [2]: 0.00091 nM; Mino Nb-PBD, drug-conjugated 2° antibody Cell Killing Span [2]: 71%

B7: SRP2188-A07 (antibody, IgG1, V domains shown)
VH: EVQLVESGGGLVQPGGSLRLSCAASGFNIHHYDIHWVRQAPGKGLEWVGWINPDDGDTYYADSVKGRFTISADTSKNTAYLQMNSLRAEDTAVYYCARDYGVFDYWGQGTLVTVSS
VL: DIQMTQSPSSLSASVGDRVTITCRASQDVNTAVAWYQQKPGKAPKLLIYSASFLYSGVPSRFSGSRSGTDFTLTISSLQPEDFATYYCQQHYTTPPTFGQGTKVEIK
notes: as for B1
**Q.** Which results are given for B7?
**A.** Bmax (MFI) [1]: 9330 MFI; Kd [1]: 0.07 nM; Kd (human ROR1-ECD): 0.609 nM; koff (human ROR1-ECD): 0.000406 s⁻¹; kon (human ROR1-ECD): 666000 M⁻¹ s⁻¹; Mino Nb-PBD, drug-conjugated 2° antibody Cell Killing IC50 [2]: 0.00048 nM; Mino Nb-PBD, drug-conjugated 2° antibody Cell Killing Span [2]: 75%

B8: SRP2188-D01 (antibody, IgG1, V domains shown)
VH: EVQLVESGGGLVQPGGSLRLSCAASGFNIKSYDIHWVRQAPGKGLEWVGWINPYDGDTYYADSVKGRFTISADTSKNTAYLQMNSLRAEDTAVYYCARDYGVFDYWGQGTLVTVSS
VL: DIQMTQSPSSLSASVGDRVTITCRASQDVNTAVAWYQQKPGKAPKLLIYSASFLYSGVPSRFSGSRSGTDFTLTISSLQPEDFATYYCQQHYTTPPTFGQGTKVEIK
notes: as for B1
**Q.** Which “Bmax (MFI)” value [1] does the source give for B8 here?
**A.** The value was 8940 MFI.

**Q.** And the Kd [1]?
**A.** The Kd was 0.04 nM.

**Q.** What about the “Mino Nb-PBD, drug-conjugated 2° antibody Cell Killing IC50” value [2] of the same binder?
**A.** Its value is 0.0011 nM.

**Q.** What about the “Mino Nb-PBD, drug-conjugated 2° antibody Cell Killing Span” value [2] of the same binder?
**A.** Its value is 72%.

B9: SRP2188-E04 (antibody, IgG1, V domains shown)
VH: EVQLVESGGGLVQPGGSLRLSCAASGFNISDYDIHWVRQAPGKGLEWVAGIDPQDGSTDYADSVKGRFTISADTSKNTAYLQMNSLRAEDAAVYYCARDFGVFDYWGQGTLVTVSS
VL: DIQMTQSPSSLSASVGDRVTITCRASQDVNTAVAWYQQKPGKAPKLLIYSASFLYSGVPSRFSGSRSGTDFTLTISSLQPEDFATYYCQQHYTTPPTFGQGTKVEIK
notes: as for B1
**Q.** Which results are given for B9?
**A.** Bmax (MFI) [1]: 9860 MFI; Kd [1]: 0.03 nM; Kd (human ROR1-ECD): 0.604 nM; koff (human ROR1-ECD): 0.000468 s⁻¹; kon (human ROR1-ECD): 775000 M⁻¹ s⁻¹; Mino Nb-PBD, drug-conjugated 2° antibody Cell Killing IC50 [2]: 0.00087 nM; Mino Nb-PBD, drug-conjugated 2° antibody Cell Killing Span [2]: 66%
